# Experimental data published in paper PMC10728100, “Structural and biochemical investigations of a HEAT-repeat protein involved in the cytosolic iron-sulfur cluster assembly pathway” (Communications Biology, 2023).
# Values joined by “and” are separate entries in the source; they are usually repeats but may differ in a detail not shown here. Equal entries are not always repeated.
# T1: SUMO-tagged ScMet18 I973A (S. cerevisiae, UniProt P40469 1-1032, I973A)
# T1 construct: Met18, S. cerevisiae; substitution in HEAT-repeat 22; source: E. coli Rosetta2(DE3), purified (Ni-NTA, gel filtration); not shown: His, N-terminal, kept; SUMO, N-terminal, kept
# T1 sequence: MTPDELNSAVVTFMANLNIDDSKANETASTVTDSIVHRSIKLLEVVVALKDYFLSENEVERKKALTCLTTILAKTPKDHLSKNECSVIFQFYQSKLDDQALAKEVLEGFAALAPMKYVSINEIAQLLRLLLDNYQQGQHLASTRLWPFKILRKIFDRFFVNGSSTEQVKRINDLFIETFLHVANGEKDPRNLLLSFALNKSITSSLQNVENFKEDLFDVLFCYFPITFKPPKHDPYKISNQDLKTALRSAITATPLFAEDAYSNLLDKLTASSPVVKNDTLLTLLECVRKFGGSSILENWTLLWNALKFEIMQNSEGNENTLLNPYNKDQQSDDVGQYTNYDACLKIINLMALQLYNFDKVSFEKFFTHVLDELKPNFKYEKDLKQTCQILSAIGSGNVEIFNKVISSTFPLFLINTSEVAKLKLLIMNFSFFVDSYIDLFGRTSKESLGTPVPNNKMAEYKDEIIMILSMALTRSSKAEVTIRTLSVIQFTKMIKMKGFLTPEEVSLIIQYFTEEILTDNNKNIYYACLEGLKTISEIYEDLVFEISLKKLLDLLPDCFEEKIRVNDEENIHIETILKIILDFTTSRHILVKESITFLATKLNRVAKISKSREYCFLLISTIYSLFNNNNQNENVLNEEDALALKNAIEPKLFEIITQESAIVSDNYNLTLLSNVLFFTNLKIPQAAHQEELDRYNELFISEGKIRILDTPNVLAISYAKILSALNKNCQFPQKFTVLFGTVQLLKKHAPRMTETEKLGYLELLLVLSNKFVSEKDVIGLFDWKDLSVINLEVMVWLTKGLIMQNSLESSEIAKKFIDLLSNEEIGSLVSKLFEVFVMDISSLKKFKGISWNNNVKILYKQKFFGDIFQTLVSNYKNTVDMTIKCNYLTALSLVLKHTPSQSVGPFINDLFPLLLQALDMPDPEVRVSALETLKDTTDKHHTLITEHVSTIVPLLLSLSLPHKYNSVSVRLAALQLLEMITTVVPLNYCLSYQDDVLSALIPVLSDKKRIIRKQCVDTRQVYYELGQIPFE
# B1: SUMO-tagged ScMet18, wild type (N-terminal His-tag followed by SUMO solubility tag) (natural protein, S. cerevisiae)
# chain: MTPDELNSAVVTFMANLNIDDSKANETASTVTDSIVHRSIKLLEVVVALKDYFLSENEVERKKALTCLTTILAKTPKDHLSKNECSVIFQFYQSKLDDQALAKEVLEGFAALAPMKYVSINEIAQLLRLLLDNYQQGQHLASTRLWPFKILRKIFDRFFVNGSSTEQVKRINDLFIETFLHVANGEKDPRNLLLSFALNKSITSSLQNVENFKEDLFDVLFCYFPITFKPPKHDPYKISNQDLKTALRSAITATPLFAEDAYSNLLDKLTASSPVVKNDTLLTLLECVRKFGGSSILENWTLLWNALKFEIMQNSEGNENTLLNPYNKDQQSDDVGQYTNYDACLKIINLMALQLYNFDKVSFEKFFTHVLDELKPNFKYEKDLKQTCQILSAIGSGNVEIFNKVISSTFPLFLINTSEVAKLKLLIMNFSFFVDSYIDLFGRTSKESLGTPVPNNKMAEYKDEIIMILSMALTRSSKAEVTIRTLSVIQFTKMIKMKGFLTPEEVSLIIQYFTEEILTDNNKNIYYACLEGLKTISEIYEDLVFEISLKKLLDLLPDCFEEKIRVNDEENIHIETILKIILDFTTSRHILVKESITFLATKLNRVAKISKSREYCFLLISTIYSLFNNNNQNENVLNEEDALALKNAIEPKLFEIITQESAIVSDNYNLTLLSNVLFFTNLKIPQAAHQEELDRYNELFISEGKIRILDTPNVLAISYAKILSALNKNCQFPQKFTVLFGTVQLLKKHAPRMTETEKLGYLELLLVLSNKFVSEKDVIGLFDWKDLSVINLEVMVWLTKGLIMQNSLESSEIAKKFIDLLSNEEIGSLVSKLFEVFVMDISSLKKFKGISWNNNVKILYKQKFFGDIFQTLVSNYKNTVDMTIKCNYLTALSLVLKHTPSQSVGPFINDLFPLLLQALDMPDPEVRVSALETLKDTTDKHHTLITEHVSTIVPLLLSLSLPHKYNSVSVRLIALQLLEMITTVVPLNYCLSYQDDVLSALIPVLSDKKRIIRKQCVDTRQVYYELGQIPFE
# notes: Met18, S. cerevisiae; Met18 gene amplified from genomic DNA; 131 kDa with the tag; also called SUMOMet18; SUMOScMet18; source: E. coli Rosetta2(DE3), purified (Ni-NTA, gel filtration); not shown: His, N-terminal, kept; SUMO, N-terminal, kept
# Experiments:
# [1] = target: the molecule itself; assay: mass photometry; ScMet18 alone (SUMO-tagged or untagged) at 0.050 µM in 50 mM Tris pH 8.0, 100 mM NaCl, 1% glycerol, 5 mM BME
# [2] = target: the molecule itself; assay: cryo-EM structure; chameleon-prepared grids; untagged ScMet18 at 2 µg/µL (15 µM) in 50 mM Tris pH 8.0, 100 mM NaCl, 1% glycerol, 1 mM BME; 24 °C
# [3] = target: the molecule itself; assay: cryo-EM structure; Vitrobot-plunged grids; untagged ScMet18 at 1.2 mg/mL (9 µM) in 50 mM HEPES pH 7.5, 100 mM NaCl, 1% glycerol, 1 mM BME, 33 mM sodium acetate; 10 °C; D3 symmetry
# [4] = target: B1; assay: pull-down; as the ScCia2 bait pull-down, but ScLeu1 and ScCia1 included in addition to the SUMO-tagged ScMet18 variant and the strep-tagged ScCia2 bait; Strep-Tactin XT resin; SDS-PAGE; details: both partners purified
# [5] = target: T1, SUMO-tagged ScMet18 I973A; assay: as above; details: both partners purified
binding result [4],binding result [5],Binder,stoichiometry N [1],stoichiometry N [2],stoichiometry N [3]
,,"untagged ScMet18 (S. cerevisiae Met18, His-SUMO tag removed by SUMO protease) (natural protein, Met18 (MMS19 in humans), S. cerevisiae; Met18 gene amplified from genomic DNA; 118 kDa; model holds residues 9-225, 242-314 and 338-1029; Mixture of monomers, dimers, tetramers and hexamers in solution; hexamer and tetramer by cryo-EM; also called SUMO-cleaved ScMet18; source: E. coli Rosetta2(DE3), purified (Ni-NTA, gel filtration; tag cut with SUMO protease, Ni-NTA flow through); not shown: …) MTPDELNSAVVTFMANLNIDDSKANETASTVTDSIVHRSIKLLEVVVALKDYFLSENEVERKKALTCLTTILAKTPKDHLSKNECSVIFQFYQSKLDDQALAKEVLEGFAALAPMKYVSINEIAQLLRLLLDNYQQGQHLASTRLWPFKILRKIFDRFFVNGSSTEQVKRINDLFIETFLHVANGEKDPRNLLLSFALNKSITSSLQNVENFKEDLFDVLFCYFPITFKPPKHDPYKISNQDLKTALRSAITATPLFAEDAYSNLLDKLTASSPVVKNDTLLTLLECVRKFGGSSILENWTLLWNALKFEIMQNSEGNENTLLNPYNKDQQSDDVGQYTNYDACLKIINLMALQLYNFDKVSFEKFFTHVLDELKPNFKYEKDLKQTCQILSAIGSGNVEIFNKVISSTFPLFLINTSEVAKLKLLIMNFSFFVDSYIDLFGRTSKESLGTPVPNNKMAEYKDEIIMILSMALTRSSKAEVTIRTLSVIQFTKMIKMKGFLTPEEVSLIIQYFTEEILTDNNKNIYYACLEGLKTISEIYEDLVFEISLKKLLDLLPDCFEEKIRVNDEENIHIETILKIILDFTTSRHILVKESITFLATKLNRVAKISKSREYCFLLISTIYSLFNNNNQNENVLNEEDALALKNAIEPKLFEIITQESAIVSDNYNLTLLSNVLFFTNLKIPQAAHQEELDRYNELFISEGKIRILDTPNVLAISYAKILSALNKNCQFPQKFTVLFGTVQLLKKHAPRMTETEKLGYLELLLVLSNKFVSEKDVIGLFDWKDLSVINLEVMVWLTKGLIMQNSLESSEIAKKFIDLLSNEEIGSLVSKLFEVFVMDISSLKKFKGISWNNNVKILYKQKFFGDIFQTLVSNYKNTVDMTIKCNYLTALSLVLKHTPSQSVGPFINDLFPLLLQALDMPDPEVRVSALETLKDTTDKHHTLITEHVSTIVPLLLSLSLPHKYNSVSVRLIALQLLEMITTVVPLNYCLSYQDDVLSALIPVLSDKKRIIRKQCVDTRQVYYELGQIPFE",2,6 and 4,6
,,B1,2 and 4 and 6,,
binds,binds,"ScLeu1 with N-terminal His tag (natural protein, S. cerevisiae, UniProt P07264 1-779, looked up, Leu1, isopropylmalate isomerase, S. cerevisiae; also called HisLeu1; source: purified) MVYTPSKGPRTLYDKVFDAHVVHQDENGSFLLYIDRHLVHEVTSPQAFEGLENAGRKVRRVDCTLATVDHNIPTESRKNFKSLDTFIKQTDSRLQVKTLENNVKQFGVPYFGMSDARQGIVHTIGPEEGFTLPGTTVVCGDSHTSTHGAFGSLAFGIGTSEVEHVLATQTIIQAKSKNMRITVNGKLSPGITSKDLILYIIGLIGTAGGTGCVIEFAGEAIEALSMEARMSMCNMAIEAGARAGMIKPDETTFQYTKGRPLAPKGAEWEKAVAYWKTLKTDEGAKFDHEINIEAVDVIPTITWGTSPQDALPITGSVPDPKNVTDPIKKSGMERALAYMGLEPNTPLKSIKVDKVFIGSCTNGRIEDLRSAAAVVRGQKLASNIKLAMVVPGSGLVKKQAEAEGLDKIFQEAGFEWREAGCSICLGMNPDILDAYERCASTSNRNFEGRQGALSRTHLMSPAMAAAAGIAGHFVDIREFEYKDQDQSSPKVEVTSEDEKELESAAYDHAEPVQPEDAPQDIANDELKDIPVKSDDTPAKPSSSGMKPFLTLEGISAPLDKANVDTDAIIPKQFLKTIKRTGLKKGLFYEWRFRKDDQGKDQETDFVLNVEPWREAEILVVTGDNFGCGSSREHAPWALKDFGIKSIIAPSYGDIFYNNSFKNGLLPIRLDQQIIIDKLIPIANKGGKLCVDLPNQKILDSDGNVLVDHFEIEPFRKHCLVNGLDDIGITLQKEEYISRYEALRREKYSFLEGGSKLLKFDNVPKRKAVTTTFDKVHQDW",,,
